Assay results as given in US20090169552A1 (FRED HUTCHINSON CANCER RESEARCH CENTER, published 2009).

T1: Siderocalin, expressed in bacteria, P80188
T1 chain: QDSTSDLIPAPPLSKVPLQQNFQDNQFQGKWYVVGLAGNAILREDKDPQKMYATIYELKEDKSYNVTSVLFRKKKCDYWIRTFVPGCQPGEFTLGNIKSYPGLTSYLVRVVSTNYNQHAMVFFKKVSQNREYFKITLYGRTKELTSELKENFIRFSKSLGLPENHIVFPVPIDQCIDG

T2: ERp5 (endoplasmic reticulum protein 5) on the cell surface (Homo sapiens (Human), UniProt Q15084 20-440)
T2 construct: Also stands for the native 50 kD ERp5 solubilised from U266 outer cell membranes in the MICA bead purification; also called surface ERp5; disulfide isomerase-related protein P5
T2 sequence: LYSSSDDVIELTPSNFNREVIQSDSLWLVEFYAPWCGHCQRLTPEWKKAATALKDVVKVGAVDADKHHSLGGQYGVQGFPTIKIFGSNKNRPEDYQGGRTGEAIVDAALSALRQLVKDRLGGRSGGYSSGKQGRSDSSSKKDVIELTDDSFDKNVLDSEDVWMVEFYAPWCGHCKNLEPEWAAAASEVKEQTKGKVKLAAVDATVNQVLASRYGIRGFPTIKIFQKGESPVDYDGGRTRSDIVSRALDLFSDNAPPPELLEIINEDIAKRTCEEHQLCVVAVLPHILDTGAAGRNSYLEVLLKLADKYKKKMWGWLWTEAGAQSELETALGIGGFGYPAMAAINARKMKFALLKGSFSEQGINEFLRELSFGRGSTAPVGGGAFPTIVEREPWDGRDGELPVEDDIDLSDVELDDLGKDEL

T3: C39S mutant of ERp5 fragment 1-118 (Homo sapiens (Human), UniProt Q15084 20-137, C39S)
T3 construct: Position 39 counts on the mature protein; not shown: N-terminal hexahistidine tract
T3 sequence: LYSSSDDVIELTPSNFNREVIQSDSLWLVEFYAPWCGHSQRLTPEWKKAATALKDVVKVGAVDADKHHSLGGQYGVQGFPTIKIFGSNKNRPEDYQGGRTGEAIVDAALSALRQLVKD

B1: recombinant ERp5 (residues 1-421 of the mature protein), bacterially produced, N-terminal hexahistidine (protein)
chain: T2 sequence
B2: MICA tetramer (recombinant MICA*001, residues 1-276, produced in transfected 293T cells, biotinylated and conjugated with PE-streptavidin) (ligand)
chain: EPHSLRYNLTVLSWDGSVQSGFLTEVHLDGQPFLRCDRQKCRAKPQGQWAEDVLGNKTWDRETRDLTGNGKDLRMTLAHIKDQKEGLHSLQEIRVCEIHEDNSTRSSQHFYYDGELFLSQNLETKEWTMPQSSRAQTLAMNVRNFLKEDAMKTKTHYHAMHADCLQELRRYLKSGVVLRRTVPPMVNVTRSEASEGNITVTCRASGFYPWNITLSWRQDGVSLSHDTQQWGDVLPDGNGTYQTWVATRICQGEEQRFTCYMEHSGNHSTHPVPSGK
modifications: glycosylated (secreted by 293T cells); BirA enzymatic biotinylation, conjugated with phycoerythrin (PE)-streptavidin
notes: Residues 1-276 probably count on the mature protein; also called MICA tetramers; PE-MICA tetramer
B3: isolated MICA α3 domain (residues 187-274), expressed in bacteria (ligand)
chain: NVTRSEASEGNITVTCRASGFYPWNITLSWRQDGVSLSHDTQQWGDVLPDGNGTYQTWVATRICQGEEQRFTCYMEHSGNHSTHPVPS
notes: Numbering probably of the mature protein (Li et al., 1999); also called α3 membrane-proximal domain
B4: NKG2D on NKL NK cells (receptor, human, UniProt P26718 1-216, looked up)
chain: MGWIRGRRSRHSWEMSEFHNYNLDLKKSDFSTRWQKQRCPVVKSKCRENASPFFFCCFIAVAMGIRFIIMVTIWSAVFLNSLFNQEVQIPLTESYCGPCPKNWICYKNNCYQFFDESKNWYESQASCMSQNASLLKVYSKEDQDLLKLVKSYHWMGLVHIPTNGSWQWEDGSILSPNLLTIIEMQKGDCALYASSFKGYIENCSTPNTYICMQRTV
notes: whole, on cells; On cells paired with DAP10 according to the description; also called KLRK1

How the values were obtained:
[1] = target: T1, Siderocalin, expressed in bacteria, …
[2] = target: T2, ERp5 (endoplasmic reticulum protein 5) …; assay: flow cytometry of freshly isolated tumor cells
[3] = target: T3, C39S mutant of ERp5 fragment 1-118; assay: purified proteins mixed, non-reducing SDS-PAGE
From the text: ERp5 activity assays. Ectodomain-only MICA, Siderocalin, and CD94-NKG2A were expressed in bacteria and purified as described (Li et al., 2001). […] All ERp5 sequences were fused to N-terminal hexahistidine tracts and included a C-terminal stop codon to prevent expression of the adjacent hexahistidine in pET22(b). Recombinant proteins were purified by metal affinity (BD Talon, Clontech) and size exclusion chromatography (Superdex 200, Pharmacia).

[4] = target: B2; assay: flow cytometry, tetramer staining of NKL cells
From the text: Early studies of NKG2D interactions with its ligands utilized randomly oligomerized recombinant MICA (rMICA) or ULBP family ligands produced as immunoglobulin fusion proteins, all of which bound exclusively to NKG2D expressing lymphocytes (Bauer et al., 1999; Cosman et al., 2001). Testing MICA and ULBP2 tetramers, the inventors confirmed that these high avidity reagents stained the NKL NK cell line and that binding was entirely accounted for by NKG2D (FIG. 1A). However, in the course of screening ˜40 cell lines by flow cytometry, the inventors observed that MICA, but not ULBP2, tetramers stained cell types lacking NKG2D. The highest fluorescence intensities were recorded with U266 myeloma cells and all of 10 epithelial tumor lines tested and correlated with relatively large amounts of cell surface MICA. Only monocytic U937 cells were identified as negative for tetramer binding (FIG. 1A). The MICA tetramers were prepared using glycosylated protein secreted by transfected 293T cells. However, tetramer binding was not reduced after cleavage of cell surface polypeptide-linked carbohydrates but was inhibited in the presence of unglycosylated rMICA (FIG. 1A).

**Q.** Which “disulfide bond reduction, non-reducing gel electrophoresis” value [1] does the source give for B1 here?
**A.** Its value is “ERp5 did not affect unrelated proteins with relatively accessible intrachain (Siderocalin) or intrachain and interchain (CD94-NKG2A) disulfide bonds”.

**Q.** Does B2 bind [2]?
**A.** Result: binds

**Q.** Does B3 bind [3]?
**A.** Result: binds

**Q.** Does B4 bind [4]?
**A.** Result: binds
